This assay addresses fibronectin (Fn) isolated from human plasma, as manually pulled single Fn fibres (human) (UniProt P02751). Briefly: fluorescence microscopy of a labelled peptide on single Fn fibres (fibre stretch assay); Fn fibres (10% Fn-Alexa647) held across PDMS trenches in a uniaxial strain device, relaxed or stretched (40%, 140%, 380% absolute strain); blocked with 4% BSA 30 min; incubated with CLP-Alexa488 30 min, rinsed and imaged in PBS; CLP-Alexa488/Fn-Alexa647 intensity ratio normalised to the 140% strain point.
UniProt P02751, sequence (P02751 32-2477): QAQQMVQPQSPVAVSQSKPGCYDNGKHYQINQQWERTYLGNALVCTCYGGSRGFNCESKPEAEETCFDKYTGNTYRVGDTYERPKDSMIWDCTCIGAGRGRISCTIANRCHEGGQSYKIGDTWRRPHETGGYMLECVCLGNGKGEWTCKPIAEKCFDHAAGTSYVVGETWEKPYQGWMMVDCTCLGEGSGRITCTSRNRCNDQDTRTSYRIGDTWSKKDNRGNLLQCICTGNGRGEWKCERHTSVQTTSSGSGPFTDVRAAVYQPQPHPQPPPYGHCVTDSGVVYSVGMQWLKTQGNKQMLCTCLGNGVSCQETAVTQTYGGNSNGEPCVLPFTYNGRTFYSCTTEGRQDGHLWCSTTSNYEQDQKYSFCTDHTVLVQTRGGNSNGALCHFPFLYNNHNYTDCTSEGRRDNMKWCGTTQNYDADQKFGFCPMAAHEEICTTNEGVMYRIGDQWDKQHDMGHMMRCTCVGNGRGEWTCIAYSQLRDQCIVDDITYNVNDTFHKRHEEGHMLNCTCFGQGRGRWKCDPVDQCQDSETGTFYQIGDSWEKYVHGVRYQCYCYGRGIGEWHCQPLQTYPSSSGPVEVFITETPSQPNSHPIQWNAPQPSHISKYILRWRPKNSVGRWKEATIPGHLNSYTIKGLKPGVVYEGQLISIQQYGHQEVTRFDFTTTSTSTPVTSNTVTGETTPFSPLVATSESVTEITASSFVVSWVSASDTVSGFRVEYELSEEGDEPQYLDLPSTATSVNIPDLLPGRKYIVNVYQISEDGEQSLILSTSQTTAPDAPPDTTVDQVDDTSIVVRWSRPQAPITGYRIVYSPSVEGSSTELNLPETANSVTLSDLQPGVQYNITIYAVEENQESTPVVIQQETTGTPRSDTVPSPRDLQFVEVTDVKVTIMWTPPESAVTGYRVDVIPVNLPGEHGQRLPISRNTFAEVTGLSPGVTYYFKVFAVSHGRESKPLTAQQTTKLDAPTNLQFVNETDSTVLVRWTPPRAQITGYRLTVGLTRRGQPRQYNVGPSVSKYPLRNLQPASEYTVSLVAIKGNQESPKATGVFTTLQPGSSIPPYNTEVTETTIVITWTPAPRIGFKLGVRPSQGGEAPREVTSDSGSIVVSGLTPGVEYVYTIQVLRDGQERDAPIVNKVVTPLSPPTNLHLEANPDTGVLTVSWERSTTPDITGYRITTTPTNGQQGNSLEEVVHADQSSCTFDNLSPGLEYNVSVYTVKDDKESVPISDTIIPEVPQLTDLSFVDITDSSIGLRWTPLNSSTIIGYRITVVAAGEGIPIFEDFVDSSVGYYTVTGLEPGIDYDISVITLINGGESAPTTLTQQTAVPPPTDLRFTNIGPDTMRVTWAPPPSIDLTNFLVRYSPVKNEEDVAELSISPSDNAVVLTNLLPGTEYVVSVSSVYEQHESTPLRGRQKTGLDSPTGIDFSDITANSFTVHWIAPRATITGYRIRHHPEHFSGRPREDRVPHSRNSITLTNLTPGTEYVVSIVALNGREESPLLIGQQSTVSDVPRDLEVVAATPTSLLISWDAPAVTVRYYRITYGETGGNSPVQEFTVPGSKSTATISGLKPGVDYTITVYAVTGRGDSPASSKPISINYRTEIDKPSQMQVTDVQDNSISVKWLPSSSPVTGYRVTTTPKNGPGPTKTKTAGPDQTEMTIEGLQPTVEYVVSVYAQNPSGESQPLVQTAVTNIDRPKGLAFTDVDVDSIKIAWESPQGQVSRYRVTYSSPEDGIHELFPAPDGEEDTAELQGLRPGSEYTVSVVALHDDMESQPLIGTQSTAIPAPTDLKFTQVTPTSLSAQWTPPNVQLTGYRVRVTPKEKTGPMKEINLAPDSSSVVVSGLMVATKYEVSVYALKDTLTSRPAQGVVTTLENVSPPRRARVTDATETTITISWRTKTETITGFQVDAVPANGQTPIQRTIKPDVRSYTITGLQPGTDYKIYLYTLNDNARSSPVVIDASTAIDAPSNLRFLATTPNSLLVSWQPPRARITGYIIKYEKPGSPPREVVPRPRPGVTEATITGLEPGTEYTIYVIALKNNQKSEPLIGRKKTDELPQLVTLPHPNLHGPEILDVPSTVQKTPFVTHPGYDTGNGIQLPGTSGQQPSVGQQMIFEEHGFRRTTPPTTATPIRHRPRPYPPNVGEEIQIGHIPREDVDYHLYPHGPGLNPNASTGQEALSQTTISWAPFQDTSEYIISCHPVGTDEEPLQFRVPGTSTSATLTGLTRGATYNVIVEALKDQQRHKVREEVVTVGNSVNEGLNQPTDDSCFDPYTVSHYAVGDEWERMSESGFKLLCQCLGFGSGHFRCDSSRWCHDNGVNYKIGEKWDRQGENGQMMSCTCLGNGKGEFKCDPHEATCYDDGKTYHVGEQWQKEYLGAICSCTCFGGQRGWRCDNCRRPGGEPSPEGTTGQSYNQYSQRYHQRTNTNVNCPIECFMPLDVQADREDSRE

As for “synthetic collagen peptide (CLP) derived from the Fn-binding region of the α1 chain of type I collagen (residues Q778-G799), with a terminal cysteine”, the drop of the CLP/Fn intensity ratio from low to high Fn fibre strain is 52%.

The values above are taken from paper PMC4539566.
